Results as given in patent US20240132578A1.

Columns and labels:
[1] = target: HIV-1 92RW020 Env (HIV-1); experiment: cell-based or functional assay
[2] = target: HIV-1 Env of isolate 92UG031 (pseudovirus) (HIV-1); experiment: cell-based or functional assay
[3] = target: HIV-1 Env of isolate 92UG037 (pseudovirus) (HIV-1); experiment: cell-based or functional assay
[4] = target: HIV-1 Env of isolate 92WR020 (pseudovirus) (HIV-1); experiment: cell-based or functional assay
[5] = target: HIV-1 Env of isolate 92WR021 (pseudovirus) (HIV-1); experiment: cell-based or functional assay
[6] = target: HIV-1 Env of isolate 92WR024 (pseudovirus) (HIV-1); experiment: cell-based or functional assay
[7] = target: HIV-1 Env of isolate 93IN905 (HIV-1); experiment: cell-based or functional assay
[8] = target: HIV-1 Env of isolate 93MW959 (HIV-1); experiment: cell-based or functional assay
[9] = target: HIV-1 Env of isolate 93UG077 (pseudovirus) (HIV-1); experiment: cell-based or functional assay
[10] = target: HIV-1 Env of isolate 93WR029 (pseudovirus) (HIV-1); experiment: cell-based or functional assay
[11] = target: HIV-1 Env of isolate 94UG103 (pseudovirus) (HIV-1); experiment: cell-based or functional assay
[12] = target: HIV-1 Env of isolate 97ZA012 (HIV-1); experiment: cell-based or functional assay
[13] = target: HIV-1 Env of isolate 98IN022 (HIV-1); experiment: cell-based or functional assay
[14] = target: HIV-1 Env of isolate JRCSF (HIV-1) (UniProt P20871); experiment: cell-based or functional assay
[15] = target: HIV-1 Env of isolate MGRM-Chronic-B-010 (HIV-1); experiment: cell-based or functional assay
[16] = target: HIV-1 Env of isolate MGRM-Chronic-B-011 (HIV-1); experiment: cell-based or functional assay
[17] = target: HIV-1 Env of isolate MGRM-Chronic-B-012 (HIV-1); experiment: cell-based or functional assay
[18] = target: HIV-1 Env of isolate MGRM-Chronic-B-017 (HIV-1); experiment: cell-based or functional assay
[19] = target: HIV-1 Env of isolate MGRM-Chronic-B-018 (HIV-1); experiment: cell-based or functional assay
[20] = target: HIV-1 Env of isolate MGRM-Chronic-B-020 (HIV-1); experiment: cell-based or functional assay
[21] = target: HIV-1 Env of isolate MGRM-Chronic-B-023 (HIV-1); experiment: cell-based or functional assay
[22] = target: HIV-1 Env of isolate MGRM-Chronic-B-024 (HIV-1); experiment: cell-based or functional assay
[23] = target: HIV-1 Env of isolate MGRM-F1-017 (HIV-1); experiment: cell-based or functional assay
[24] = target: HIV-1 Env of isolate NL43 (HIV-1); experiment: cell-based or functional assay
[25] = target: HIV-1 Env of isolate PVO.4 (HIV-1); experiment: cell-based or functional assay
[26] = target: HIV-1 Env of isolate QH0692.42 (HIV-1); experiment: cell-based or functional assay
[27] = target: HIV-1 Env of isolate SC422661.8 (HIV-1); experiment: cell-based or functional assay
[28] = target: HIV-1 Env of isolate SF162 (HIV-1) (UniProt P19550); experiment: cell-based or functional assay
[29] = target: HIV-1 Env of isolate THR0.18 (HIV-1); experiment: cell-based or functional assay
[30] = target: HIV-1 Env of isolate TRJ04551.58 (HIV-1); experiment: cell-based or functional assay
[31] = target: HIV-1 Env of isolate TRO.11 (HIV-1); experiment: cell-based or functional assay
[32] = target: HIV-1 Env of isolate VLGCB3 (HIV-1); experiment: cell-based or functional assay
aMLV envelope = experiment: cell-based or functional assay
[33] = target: WT JR-FL gp120 (HIV-1 JR-FL); experiment: ELISA, antigen-coated wells, mAb titrated; EC50 by nonlinear regression
[34] = target: HIV-1 Env of isolate MGRM-D-014 (clade D pseudovirus) (HIV-1); experiment: cell-based or functional assay
[35] = target: HIV-1 Env of isolate TRJ0.58 (Acute), clade B (HIV-1); experiment: cell-based or functional assay
[36] = target: HIV-1 envelope glycoprotein (Env) of isolate MGRM-C-004 (HIV-1); experiment: cell-based or functional assay
[37] = target: JR-FL gp120 ΔV1/ΔV2 (HIV-1 JR-FL); experiment: ELISA, antigen-coated wells, mAb titrated; EC50 by nonlinear regression

5147_N06 (PGT-130) (antibody) was tested, and the IC50, pseudovirus neutralization [1] was 0.014 µg/mL, the IC50 (µg/mL), pseudovirus neutralization [2] was greater than 50 µg/mL and the IC50 (µg/mL), pseudovirus neutralization [3] was 0.061 µg/mL. It also gave an IC50 (µg/mL), pseudovirus neutralization [4] of 0.039 µg/mL, an IC50 (µg/mL), pseudovirus neutralization [5] of 0.004 µg/mL and an IC50 (µg/mL), pseudovirus neutralization [6] greater than 50 µg/mL. For the same substance, the IC50 (µg/mL), pseudovirus neutralization [7] was 0.02 µg/mL, the IC50 (µg/mL), pseudovirus neutralization [8] was 8.55 µg/mL and the IC50 (µg/mL), pseudovirus neutralization [9] was 21.4 µg/mL. The IC50 (µg/mL), pseudovirus neutralization [10] was 34.3 µg/mL, the IC50 (µg/mL), pseudovirus neutralization [11] was 1.4 µg/mL and the IC50 (µg/mL), pseudovirus neutralization [12] was 1.32 µg/mL. The IC50 (µg/mL), pseudovirus neutralization [13] was greater than 50 µg/mL, the IC50 (µg/mL), pseudovirus neutralization [14] was 0.01 µg/mL and the IC50 (µg/mL), pseudovirus neutralization [15] was 0.006 µg/mL. It also gave an IC50 (µg/mL), pseudovirus neutralization [16] of 0.153 µg/mL, an IC50 (µg/mL), pseudovirus neutralization [17] of 0.373 µg/mL and an IC50 (µg/mL), pseudovirus neutralization [18] greater than 50 µg/mL. The IC50 (µg/mL), pseudovirus neutralization [19] was 31.9 µg/mL, the IC50 (µg/mL), pseudovirus neutralization [20] was 0.014 µg/mL and the IC50 (µg/mL), pseudovirus neutralization [21] was greater than 50 µg/mL. For the same substance, the IC50 (µg/mL), pseudovirus neutralization [22] was 5.78 µg/mL, the IC50 (µg/mL), pseudovirus neutralization [23] was greater than 50 µg/mL and the IC50 (µg/mL), pseudovirus neutralization [24] was greater than 50 µg/mL. It also gave an IC50 (µg/mL), pseudovirus neutralization [25] of 5.17 µg/mL, an IC50 (µg/mL), pseudovirus neutralization [26] greater than 50 µg/mL and an IC50 (µg/mL), pseudovirus neutralization [27] greater than 50 µg/mL. The IC50 (µg/mL), pseudovirus neutralization [28] was 0.007 µg/mL, the IC50 (µg/mL), pseudovirus neutralization [29] was greater than 50 µg/mL and the IC50 (µg/mL), pseudovirus neutralization [30] was 0.023 µg/mL. For the same substance, the IC50 (µg/mL), pseudovirus neutralization [31] was 0.257 µg/mL, the IC50 (µg/mL), pseudovirus neutralization [32] was 4.6 µg/mL and the IC50, pseudovirus neutralization (aMLV envelope) was greater than 10 µg/mL. It also gave an EC50 [33] of 0.2 µg/mL.
2F5 (antibody) was tested, and the IC50, pseudovirus neutralization [34] was 2.22 µg/mL, the IC50 (µg/ml), pseudovirus neutralization [28] was 2.52 µg/mL and the IC50 (µg/ml), pseudovirus neutralization [35] was greater than 50 µg/mL. The IC50 (µg/ml), pseudovirus neutralization [36] was greater than 50 µg/mL.
2G12 (antibody) was tested, and the IC50, pseudovirus neutralization [34] was greater than 50 µg/mL, the IC50 (µg/ml), pseudovirus neutralization [28] was 1.67 µg/mL and the IC50 (µg/ml), pseudovirus neutralization [35] was greater than 50 µg/mL. For the same substance, the IC50 (µg/ml), pseudovirus neutralization [36] was greater than 50 µg/mL.
Work on 5329_C19 (PGT-136) (antibody) yielded an IC50, pseudovirus neutralization [1] of 0.738 µg/mL, an IC50 (µg/mL), pseudovirus neutralization [2] greater than 50 µg/mL and an IC50 (µg/mL), pseudovirus neutralization [3] greater than 50 µg/mL. For the same substance, the IC50 (µg/mL), pseudovirus neutralization [4] was 2.33 µg/mL, the IC50 (µg/mL), pseudovirus neutralization [5] was greater than 50 µg/mL and the IC50 (µg/mL), pseudovirus neutralization [6] was greater than 50 µg/mL. The IC50 (µg/mL), pseudovirus neutralization [7] was 0.011 µg/mL, the IC50 (µg/mL), pseudovirus neutralization [8] was greater than 50 µg/mL and the IC50 (µg/mL), pseudovirus neutralization [9] was greater than 50 µg/mL. The IC50 (µg/mL), pseudovirus neutralization [10] was greater than 50 µg/mL, the IC50 (µg/mL), pseudovirus neutralization [11] was greater than 50 µg/mL and the IC50 (µg/mL), pseudovirus neutralization [12] was greater than 50 µg/mL. It also gave an IC50 (µg/mL), pseudovirus neutralization [13] of 13.6 µg/mL, an IC50 (µg/mL), pseudovirus neutralization [14] greater than 50 µg/mL and an IC50 (µg/mL), pseudovirus neutralization [15] greater than 50 µg/mL. The IC50 (µg/mL), pseudovirus neutralization [16] was greater than 50 µg/mL, the IC50 (µg/mL), pseudovirus neutralization [17] was 43.1 µg/mL and the IC50 (µg/mL), pseudovirus neutralization [18] was greater than 50 µg/mL. For the same substance, the IC50 (µg/mL), pseudovirus neutralization [19] was greater than 50 µg/mL, the IC50 (µg/mL), pseudovirus neutralization [20] was greater than 50 µg/mL and the IC50 (µg/mL), pseudovirus neutralization [21] was greater than 50 µg/mL. The IC50 (µg/mL), pseudovirus neutralization [22] was greater than 50 µg/mL, the IC50 (µg/mL), pseudovirus neutralization [23] was greater than 50 µg/mL and the IC50 (µg/mL), pseudovirus neutralization [24] was 27.7 µg/mL. The IC50 (µg/mL), pseudovirus neutralization [25] was greater than 50 µg/mL, the IC50 (µg/mL), pseudovirus neutralization [26] was greater than 50 µg/mL and the IC50 (µg/mL), pseudovirus neutralization [27] was greater than 50 µg/mL. The IC50 (µg/mL), pseudovirus neutralization [28] was 0.482 µg/mL, the IC50 (µg/mL), pseudovirus neutralization [29] was greater than 50 µg/mL and the IC50 (µg/mL), pseudovirus neutralization [30] was greater than 50 µg/mL. For the same substance, the IC50 (µg/mL), pseudovirus neutralization [31] was 0.073 µg/mL, the IC50 (µg/mL), pseudovirus neutralization [32] was greater than 50 µg/mL and the EC50 [37] was 0.3 µg/mL. For the same substance, the EC50 [33] was 0.2 µg/mL.
5343_B08 (PGT-135) (antibody) showed an IC50, pseudovirus neutralization [1] of 0.157 µg/mL, an IC50 (µg/mL), pseudovirus neutralization [2] greater than 50 µg/mL and an IC50 (µg/mL), pseudovirus neutralization [3] of 3.67 µg/mL. For the same substance, the IC50 (µg/mL), pseudovirus neutralization [4] was 0.067 µg/mL, the IC50 (µg/mL), pseudovirus neutralization [5] was greater than 50 µg/mL and the IC50 (µg/mL), pseudovirus neutralization [6] was greater than 50 µg/mL. For the same substance, the IC50 (µg/mL), pseudovirus neutralization [7] was 0.011 µg/mL, the IC50 (µg/mL), pseudovirus neutralization [8] was greater than 50 µg/mL and the IC50 (µg/mL), pseudovirus neutralization [9] was greater than 50 µg/mL. The IC50 (µg/mL), pseudovirus neutralization [10] was greater than 50 µg/mL, the IC50 (µg/mL), pseudovirus neutralization [11] was greater than 50 µg/mL and the IC50 (µg/mL), pseudovirus neutralization [12] was greater than 50 µg/mL. The IC50 (µg/mL), pseudovirus neutralization [13] was 0.014 µg/mL, the IC50 (µg/mL), pseudovirus neutralization [14] was 0.131 µg/mL and the IC50 (µg/mL), pseudovirus neutralization [15] was greater than 50 µg/mL. For the same substance, the IC50 (µg/mL), pseudovirus neutralization [16] was greater than 50 µg/mL, the IC50 (µg/mL), pseudovirus neutralization [17] was 0.166 µg/mL and the IC50 (µg/mL), pseudovirus neutralization [18] was greater than 50 µg/mL. The IC50 (µg/mL), pseudovirus neutralization [19] was greater than 50 µg/mL, the IC50 (µg/mL), pseudovirus neutralization [20] was 0.057 µg/mL and the IC50 (µg/mL), pseudovirus neutralization [21] was 0.329 µg/mL. The IC50 (µg/mL), pseudovirus neutralization [22] was greater than 50 µg/mL, the IC50 (µg/mL), pseudovirus neutralization [23] was 7.79 µg/mL and the IC50 (µg/mL), pseudovirus neutralization [24] was 8.03 µg/mL. It also gave an IC50 (µg/mL), pseudovirus neutralization [25] greater than 50 µg/mL, an IC50 (µg/mL), pseudovirus neutralization [26] greater than 50 µg/mL and an IC50 (µg/mL), pseudovirus neutralization [27] of 21.8 µg/mL. For the same substance, the IC50 (µg/mL), pseudovirus neutralization [28] was 0.023 µg/mL, the IC50 (µg/mL), pseudovirus neutralization [29] was greater than 50 µg/mL and the IC50 (µg/mL), pseudovirus neutralization [30] was greater than 50 µg/mL. The IC50 (µg/mL), pseudovirus neutralization [31] was 0.03 µg/mL, the IC50 (µg/mL), pseudovirus neutralization [32] was 0.142 µg/mL and the EC50 [37] was 0.1 µg/mL. The EC50 [33] was 0.1 µg/mL.
In the case of 1495_C14 (PGC14) (antibody), the IC50, pseudovirus neutralization [34] is reported as 48 µg/mL, the IC50 (µg/ml), pseudovirus neutralization [28] is reported as less than 0.0025 µg/mL and the IC50 (µg/ml), pseudovirus neutralization [35] is reported as greater than 50 µg/mL. For the same substance, the IC50 (µg/ml), pseudovirus neutralization [36] was greater than 50 µg/mL.
